Broadly, the EC50 is the concentration that produces a half-maximal response. Low values mean greater potency, high ones weaker potency.

In assay [1] the target is T1, human CD200R1 expressed on cells (Jurkat-CD200R1, U937-CD200R1, HH cells) (human, UniProt Q8TD46 25-348).
T1 construct: whole, on cells; also called HH (CRL-2105); cell surface-expressed CD200R1
T1 sequence (looked up): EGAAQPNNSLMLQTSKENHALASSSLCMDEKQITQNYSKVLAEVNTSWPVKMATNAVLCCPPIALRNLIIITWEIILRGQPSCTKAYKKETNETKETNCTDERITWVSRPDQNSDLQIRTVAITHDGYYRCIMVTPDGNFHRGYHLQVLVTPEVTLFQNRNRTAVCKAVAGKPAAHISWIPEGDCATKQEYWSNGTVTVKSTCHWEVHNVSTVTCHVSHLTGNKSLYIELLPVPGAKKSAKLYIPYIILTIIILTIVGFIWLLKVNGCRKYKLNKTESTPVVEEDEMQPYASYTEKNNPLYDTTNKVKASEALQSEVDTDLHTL
In words: flow cytometry, HH cells; drawn table. (A flow cytometer gives signals particle by particle.)

The target in assay [2] is T1, human CD200R1 expressed on cells …. Nature of the assay: flow cytometry, HH cells; drawn table, row EC50.
The target in assay [3] is T2, human CD200RLa (Sino Biological, 11620-H08H) recombinant protein (human, UniProt Q6Q8B3 24-239).
T2 construct: Bought; construct not described
T2 sequence (looked up): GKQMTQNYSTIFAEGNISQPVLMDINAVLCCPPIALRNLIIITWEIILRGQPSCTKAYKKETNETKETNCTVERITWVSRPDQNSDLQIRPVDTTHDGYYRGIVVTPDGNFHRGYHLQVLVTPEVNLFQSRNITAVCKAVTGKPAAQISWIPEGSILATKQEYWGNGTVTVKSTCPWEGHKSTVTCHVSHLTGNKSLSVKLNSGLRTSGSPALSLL
Nature of the assay: ELISA, plate-bound human CD200RLa (2 ug/mL), antibody 0.0192-300 nM, O.D 450 nm; panel 'recombinant human CD200RLa'. The protocol:
96-well plates were coated with human CD200RLa (Sino Biological, 11620-H08H) and monkey CD200RLa (Sino Biological, 11576-C02H) recombinant proteins at a concentration of 2 μg/mL at 4° C. for 16 hours, and blocked with 3% skim milk for 1 hour. […] Color was developed with a TMB substrate solution (Thermo Scientific, 34029, 1-Step™ Ultra TMB-ELISA Substrate Solution). The color reaction was stopped with stop solution (Invitrogen, SS04, ELISA Stop Solution).
(In general: ELISA stands for enzyme-linked immunosorbent assay.)

The target in assay [4] is T3, mouse CD200R1 protein (R&D systems, 2554-CD) (mouse, UniProt Q9ES57 26-238, limits assumed).
T3 construct: Bought; construct not described
T3 sequence (looked up): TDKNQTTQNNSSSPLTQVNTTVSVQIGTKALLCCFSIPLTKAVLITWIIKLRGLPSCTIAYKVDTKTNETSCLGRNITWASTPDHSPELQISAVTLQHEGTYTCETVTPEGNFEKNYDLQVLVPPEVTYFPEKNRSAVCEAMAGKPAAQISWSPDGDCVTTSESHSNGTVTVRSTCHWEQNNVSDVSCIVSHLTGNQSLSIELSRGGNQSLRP
In words: ELISA, plate-bound mouse CD200R1 (2 ug/mL), IgG 0.0192-300 nM, OD 450 nm; panel 'mouse CD200R1'. The protocol:
96-well plates were coated with human CD200R1 (R&D systems, 3414-CD) and mouse CD200R1 protein (R&D systems, 2554-CD) at a concentration of 2 μg/mL at 4° C. for 16 hours and then were blocked with 3% skim milk.
Color was developed with a TMB substrate solution (Thermo Scientific, 34029, 1-Step™ TMB-ELISA Ultra Substrate Solution). The color reaction was stopped with stop solution (Invitrogen, SS04, ELISA Stop Solution). The absorbance was measured at an optical density of 450 nm.

B1: P001018 scFv mutant H3-Y102K (scFv)
scFv: QVQLVQSGAEVKKPGASVKVSCKASGYTFTSYVMHWVRQAPGQGLEWMGYINPYNDDTNYNEKFKGRVTMTRDTSTSTVYMELSSLRSEDTAVYYCAREDYYGSRWGKWGQGTLVTVSSGGGGSGGGGSGGGGSDIVLTQSPASLAVSPGQRATITCRASKSVSTSGYSYMHWYQQKPGQPPKLLIYLASNLESGVPARFSGSGSGTDFTLTINPVEANDTANYYCQHSRELLTFGQGTKVEIK
For the molecule B1, in assay [1], the “Geo mean (%) at 0.05 nM” value amounted to 2.1%, the “Geo mean (%) at 0.19 nM” value was determined as 6.1%, the “Geo mean (%) at 0.78 nM” value was determined as 17.1% and the “Geo mean (%) at 3.125 nM” value came to 35.3%. For the same molecule, in assay [1], the “Geo mean (%) at 12.5 nM” value turned out to be 67%, the “Geo mean (%) at 50 nM” value worked out at 85.7%, the “Geo mean (%) at 200 nM” value was 104% and the “Geo mean (%) at 800 nM” value stood at 120%. This molecule also came in with an EC50 in assay [2] of 9.79 nM.

B2: P001018 scFv mutant H3-Y102T (scFv)
scFv: QVQLVQSGAEVKKPGASVKVSCKASGYTFTSYVMHWVRQAPGQGLEWMGYINPYNDDTNYNEKFKGRVTMTRDTSTSTVYMELSSLRSEDTAVYYCAREDYYGSRWGTWGQGTLVTVSSGGGGSGGGGSGGGGSDIVLTQSPASLAVSPGQRATITCRASKSVSTSGYSYMHWYQQKPGQPPKLLIYLASNLESGVPARFSGSGSGTDFTLTINPVEANDTANYYCQHSRELLTFGQGTKVEIK
Take B2: in assay [1], the “Geo mean (%) at 0.05 nM” value is 2%, the “Geo mean (%) at 0.19 nM” value amounted to 5.8%, the “Geo mean (%) at 0.78 nM” value worked out at 15.5% and the “Geo mean (%) at 3.125 nM” value was determined as 33.2%. In assay [1], the “Geo mean (%) at 12.5 nM” value is 69.7%, the “Geo mean (%) at 50 nM” value was determined as 91.6%, the “Geo mean (%) at 200 nM” value came to 107% and the “Geo mean (%) at 800 nM” value is 121%. In assay [2], this molecule yielded an EC50 of 9.43 nM.

B3: P001018 scFv mutant L3-L94H (scFv)
scFv: QVQLVQSGAEVKKPGASVKVSCKASGYTFTSYVMHWVRQAPGQGLEWMGYINPYNDDTNYNEKFKGRVTMTRDTSTSTVYMELSSLRSEDTAVYYCAREDYYGSRWGYWGQGTLVTVSSGGGGSGGGGSGGGGSDIVLTQSPASLAVSPGQRATITCRASKSVSTSGYSYMHWYQQKPGQPPKLLIYLASNLESGVPARFSGSGSGTDFTLTINPVEANDTANYYCQHSREHLTFGQGTKVEIK
For B3, in assay [1], the “Geo mean (%) at 0.05 nM” value stood at 2.2%, the “Geo mean (%) at 0.19 nM” value stood at 5.6%, the “Geo mean (%) at 0.78 nM” value was determined as 18.5% and the “Geo mean (%) at 3.125 nM” value came to 35.3%. Also, in assay [1], the “Geo mean (%) at 12.5 nM” value was 59.1%, the “Geo mean (%) at 50 nM” value is 75.2%, the “Geo mean (%) at 200 nM” value was found to be 96.7% and the “Geo mean (%) at 800 nM” value is 105%. In assay [2], the EC50 was 9.4 nM.

B4: P001018 scFv mutant L3-R92S (scFv)
scFv: QVQLVQSGAEVKKPGASVKVSCKASGYTFTSYVMHWVRQAPGQGLEWMGYINPYNDDTNYNEKFKGRVTMTRDTSTSTVYMELSSLRSEDTAVYYCAREDYYGSRWGYWGQGTLVTVSSGGGGSGGGGSGGGGSDIVLTQSPASLAVSPGQRATITCRASKSVSTSGYSYMHWYQQKPGQPPKLLIYLASNLESGVPARFSGSGSGTDFTLTINPVEANDTANYYCQHSSELLTFGQGTKVEIK
B4: in assay [1], the “Geo mean (%) at 0.05 nM” value amounted to 1.7%, the “Geo mean (%) at 0.19 nM” value came out at 4.5%, the “Geo mean (%) at 0.78 nM” value worked out at 12% and the “Geo mean (%) at 3.125 nM” value was 33.9%. Moreover, in assay [1], the “Geo mean (%) at 12.5 nM” value turned out to be 73.2%, the “Geo mean (%) at 50 nM” value worked out at 90.1%, the “Geo mean (%) at 200 nM” value is 108% and the “Geo mean (%) at 800 nM” value was determined as 116%. Also, in assay [2], the 50% effective concentration (EC50) worked out at 7.76 nM.

B5: P001018 scFv mutant L3-L95D (scFv)
scFv: QVQLVQSGAEVKKPGASVKVSCKASGYTFTSYVMHWVRQAPGQGLEWMGYINPYNDDTNYNEKFKGRVTMTRDTSTSTVYMELSSLRSEDTAVYYCAREDYYGSRWGYWGQGTLVTVSSGGGGSGGGGSGGGGSDIVLTQSPASLAVSPGQRATITCRASKSVSTSGYSYMHWYQQKPGQPPKLLIYLASNLESGVPARFSGSGSGTDFTLTINPVEANDTANYYCQHSRELDTFGQGTKVEIK
With B5, in assay [1], the “Geo mean (%) at 0.05 nM” value was determined as 2%, the “Geo mean (%) at 0.19 nM” value is 5.6%, the “Geo mean (%) at 0.78 nM” value came to 16.4% and the “Geo mean (%) at 3.125 nM” value was 35.6%. Further, in assay [1], the “Geo mean (%) at 12.5 nM” value worked out at 73.8%, the “Geo mean (%) at 50 nM” value amounted to 95.3%, the “Geo mean (%) at 200 nM” value stood at 119% and the “Geo mean (%) at 800 nM” value was 145%. In assay [2], the EC50 was 13.1 nM.

B6: P001018 scFv mutant L3-L94S (scFv)
scFv: QVQLVQSGAEVKKPGASVKVSCKASGYTFTSYVMHWVRQAPGQGLEWMGYINPYNDDTNYNEKFKGRVTMTRDTSTSTVYMELSSLRSEDTAVYYCAREDYYGSRWGYWGQGTLVTVSSGGGGSGGGGSGGGGSDIVLTQSPASLAVSPGQRATITCRASKSVSTSGYSYMHWYQQKPGQPPKLLIYLASNLESGVPARFSGSGSGTDFTLTINPVEANDTANYYCQHSRESLTFGQGTKVEIK
Take B6: in assay [1], the “Geo mean (%) at 0.05 nM” value amounted to 1.8%, the “Geo mean (%) at 0.19 nM” value amounted to 5.9%, the “Geo mean (%) at 0.78 nM” value was 17.3% and the “Geo mean (%) at 3.125 nM” value worked out at 35.5%. In assay [1], the “Geo mean (%) at 12.5 nM” value came to 62%, the “Geo mean (%) at 50 nM” value was determined as 76.6%, the “Geo mean (%) at 200 nM” value is 98.7% and the “Geo mean (%) at 800 nM” value was 110%. Further, the half-maximal effective concentration (EC50) in assay [2] turned out to be 9.52 nM.

B7: P001018 scFv mutant L3-R92H (scFv)
scFv: QVQLVQSGAEVKKPGASVKVSCKASGYTFTSYVMHWVRQAPGQGLEWMGYINPYNDDTNYNEKFKGRVTMTRDTSTSTVYMELSSLRSEDTAVYYCAREDYYGSRWGYWGQGTLVTVSSGGGGSGGGGSGGGGSDIVLTQSPASLAVSPGQRATITCRASKSVSTSGYSYMHWYQQKPGQPPKLLIYLASNLESGVPARFSGSGSGTDFTLTINPVEANDTANYYCQHSHELLTFGQGTKVEIK
With B7, in assay [1], the “Geo mean (%) at 0.05 nM” value stood at 3.3%, the “Geo mean (%) at 0.19 nM” value was determined as 8.7%, the “Geo mean (%) at 0.78 nM” value was determined as 19.8% and the “Geo mean (%) at 3.125 nM” value was 43.8%. In assay [1], the “Geo mean (%) at 12.5 nM” value came to 84.1% and the “Geo mean (%) at 50 nM” value came to 100%. Moreover, in assay [2], a half-maximal response (EC50) required 6.14 nM.

B8: P001013 (IgG) (antibody, V domains shown)
VH: EVQLLESGGGLVQPGGSLRLSCAASGFTFSGYDMSWVRQAPGKGLEWVSGIPPGDGSTYYADSVKGRFTISRDNSKNTLYLQMNSLRAEDTAVYYCAKHLVSDHPPSQYSDDGMDVWGQGTLVTVSS
VL: QSVLTQPPSASGTPGQRVTISCSGSSSNIGNNDVNWYQQLPGTAPKLLIYYNSQRPSGVPDRFSGSKSGTSASLAISGLRSEDEADYYCGSWDYSLNGYVFGGGTKLTVL
Take B8: the binding result in assay [3] and in assay [4] was “no binding (tested: 300 nM)” each time.

B9: P001017 (chimeric OX108) (antibody, V domains shown)
VH: EVKLQQSGPELVKPGASVKMSCKASGYTFTSYVMHWVKQKPGQGLEWIGYINPYNDDTNYNEKFKGKATLTSDKSSSTAYMELSSLTSEDSAVYYCAREDYYGSRWGYWGQGTTLTVSS
VL: DIVLTQSPASLAVSLGQRATISCRASKSVSTSGYSYMHWYQQKPGQPPKLLIYLASNLESGVPARFSGSGSGTDFTLNIHPVEEEDAATYYCQHSRELLTFGAGTKLELK
notes: also called QX108; murine anti-CD200R1 antibody OX108
As for B9, the binding result in assay [3] was “no binding (tested: 300 nM)”.
